B1: Zinc finger protein GLIS2 (Homo sapiens), Q9BZE0 (parent)
chain: MHSLDEPLDLKLSITKLRAAREKRERTLGVVRPRALHRELGLVDDSPTPGSPGSPPSGFLLNSKFPEKVEGRFSAAPLVDLSLSPPSGLDSPNGSSSLSPERQGNGDLPPVPSASDFQPLRYLDGVPSSFQFFLPLGSGGALHLPASSFLTPPKDKCLSPDLPLPKQLVCRWAKCNQLFELLQDLVDHVNDYHVKPEKDAGYCCHWEGCARHGRGFNARYKMLIHIRTHTNEKPHRCPTCSKSFSRLENLKIHNRSHTGEKPYVCPYEGCNKRYSNSSDRFKHTRTHYVDKPYYCKMPGCHKRYTDPSSLRKHIKAHGHFVSHEQQELLQLRPPPKPPLPAPDGGPYVSGAQIIIPNPAALFGGPGLPGLPLPLAPGPLDLSALACGNGGGSGGGGGMGPGLPGPVLPLNLAKNPLLPSPFGAGGLGLPVVSLLAGAAGGKAEGEKGRGSVPTRALGMEGHKTPLERTESSCSRPSPDGLPLLPGTVLDLSTGVNSAASSPEALAPGWVVIPPGSVLLKPAVVN

Variants of: B1
Conditions: with ctnb1_human CTNNB1, P35222
Chain of ctnb1_human CTNNB1, P35222 (P35222 whole entry): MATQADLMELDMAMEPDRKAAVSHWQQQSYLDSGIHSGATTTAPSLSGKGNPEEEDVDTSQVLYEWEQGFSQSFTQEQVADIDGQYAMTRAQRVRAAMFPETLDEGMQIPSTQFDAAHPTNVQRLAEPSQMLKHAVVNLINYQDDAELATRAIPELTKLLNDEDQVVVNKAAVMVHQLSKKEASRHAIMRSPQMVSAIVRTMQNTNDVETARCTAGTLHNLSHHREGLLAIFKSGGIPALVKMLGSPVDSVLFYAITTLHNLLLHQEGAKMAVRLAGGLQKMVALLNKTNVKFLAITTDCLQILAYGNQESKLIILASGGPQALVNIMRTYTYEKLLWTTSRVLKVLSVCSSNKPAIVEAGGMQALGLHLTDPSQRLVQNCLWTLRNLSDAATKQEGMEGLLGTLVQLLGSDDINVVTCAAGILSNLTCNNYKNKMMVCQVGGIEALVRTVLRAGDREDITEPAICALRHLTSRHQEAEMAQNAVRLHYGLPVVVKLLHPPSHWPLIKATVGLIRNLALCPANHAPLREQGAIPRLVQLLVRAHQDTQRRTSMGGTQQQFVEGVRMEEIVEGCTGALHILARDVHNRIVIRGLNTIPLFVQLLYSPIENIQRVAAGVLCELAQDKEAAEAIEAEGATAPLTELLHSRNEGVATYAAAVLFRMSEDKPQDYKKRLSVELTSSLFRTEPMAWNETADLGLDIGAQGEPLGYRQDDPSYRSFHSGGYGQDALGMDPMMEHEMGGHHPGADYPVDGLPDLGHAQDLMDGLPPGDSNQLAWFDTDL

Variant | effect of a mutation on the interaction
C175A | disrupting interaction
